# Laboratory results as given in the nanobody polyreactivity screen of Harvey et al. (2022).
# Test: yeast display, Sf9 membrane polyspecificity reagent, FACS + sequencing; frameworks hold sequencing errors
# How it was run: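 A nanobody's polyreactivity label depends on the gate it was sorted from. Yeast display cells were stained with 10% biotinylated, detergent-solubilized Sf9 membrane reagent for 1 hour at 4 °C, enriched on streptavidin microbeads and sorted by FACS. The low and high (top ~1%) gates were set on anti-HA fluorescence for expression and streptavidin fluorescence for reagent binding.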
row,Sequence,polyreactivity (PSR sort gate)
1,QVQLVESGGGLVQAGGSLRLSCAASGFMFSRYGMGWYRQAPGKERELVAAISGSCGSTYYADSVKGRFTISRDNAKNTVYLQMKSLKPEDTAFYLCATAYSWSNSDWFAYSYDYWGHGTQVTVSS,low polyreactivity
2,QVQLVESGGGLVQAGGSLRLSCAASGFNFDGNAMGWYRQAPGKERELVAAISSSSGRTRYADSVTGRFSISRDNAKNTVYLQMNSLKPEDTAVYYCAARRQSTRPGFYYWGQGTQVTVSS,high polyreactivity
3,QVQLVESGGGLVQAGGSLRLSCAASGFNFEAYTMGWYRQAPGKERELVASIDWDGGSTYYADSVKGRFTISRDNAKNTVYLQMNSLKPEDTAVYYCAADSRQYDELGDYDYWGQGTQVTVSS,low polyreactivity
4,QVQLVESGGGLVQAGGSLRLSCAASGFNFEVNAMGWYRQAPGKERELVAAITTDGSTNYADSVNGRFSSSRDNAKNTVYIQMTSLKPEDTAVYYCAARVQHYLGTDDYWGQGTQVTVSS,low polyreactivity
5,QVQLVESGGGLVQAGGSLRLSCAASGFNFGYYAMGWYRQAPGKERELVAAITSRGGSTYYADSVKGRFTISRDNAKNTDYLQMNSLKPEDTAVYYLAAYSQYLKRDYWGQGTQVTVSS,high polyreactivity
6,QVQLVESGGGLVQAGGSLRLSCAASGFNFIDYAMGWYRQAPGKERELVAAITSSGGRTYYADSVKGRFTISRDNAKITVYLQMTSLKPEDTAVYYCAARLPGYVRIYDYWGQGTQVTVSS,high polyreactivity
7,QVQLVESGGGLVQAGGSLRLSCAASGFNFIKYAMGWSRQSPGKESELVAAISFRGGRTYYADSVKGRITISRDNAKNTVYLQMNSLKPEDTAVYYCAAETRDYSEGYYWGQGTQVTVSS,high polyreactivity
8,QVQLVESGGGLVQAGGSLRLSCAASGFNFLTYAMGWYRQATGKESELVAAISSSGGRTTYADSVKGRFTISRDNAKNTVYLQMNSLKPEDTAVYYCAVEDYTIVLDYESWGQGTQVTVSS,high polyreactivity
9,QVQLVESGGGLVQAGGSLRLSCAASGFNFPRYTMGWSRKAPGKEREFVAGITLRGGSTYYADSVKGRFTISRANAKNTVYLQMNSLKPDETAVYYCARVISRGRSFGIGYDYWGQATQVTVSS,low polyreactivity
10,QVQLVESGGGLVQAGGSLRLSCAASGFNFPYNAMGRYRQAPGKERELVAAITSGSNTYYADSVKGRFTISRDNAKNTVYLQMNSLKPEDTAVYYCAARGHGAYGYWGQGTQVTVSS,low polyreactivity
11,QVQLVESGGGLVQAGGSLRLSCAASGFNFRLYAMGWYRQAPGKERELVATITQRGGRTYYADSVKGRFTISLDNAHNTVYLQMNSLKPEDTAVYYCAATWTVTTGTKFDYWGQGTQVTVAS,high polyreactivity
12,QVQLVESGGGLVQAGGSLRLSCAASGFNFSSYAMGWSRQAPGKERELVAAISGSGGTTYYADSVKGRFTISRDNAKNTVYLQMNSQKPEDTAVYYCATRLGLVITKYGYDYWGQGTQVTVSS,high polyreactivity
13,QVQLVESGGGLVQAGGSLRLSCAASGFNFYSYAMGWYKQAPGKERELVAVTYADSVKGRFTISRDNAQNTVYLQMNSLKPEDTAVYYCAALEYLDGPLSDYWGQGTQVTVSS,low polyreactivity
14,QVQLVESGGGLVQAGGSLRLSCAASGFNIGDYAMGWYRQAPGKERELVAAITISGGGTYYADSVKGRFTISRDNAKNTVYLQMNSLKPEDTAVYYCAAGYYDLNLDTDFGFDYWGQGTQVTVSS,low polyreactivity
15,QVQLVESGGGLVQAGGSLRLSCAASGFNSDWYAMGWSRQAPGKERELVATIDWIGGSTYADSVKGRFTISRDNAKNTVFLQMNSLKPEDTAVYYCAADSYFIAWYGAHYAYDYWGQGTQVTVSS,low polyreactivity
16,QVQLVESGGGLVQAGGSLRLSCAASGFSFHRYAMGWYRQAPGKERELVAGITRRSGSTFYADSVKGRFTISRDNAKNTVYLQMNRLKPEDSAVYYCAATVPGLHWIYDYWGQGTQVTVSS,high polyreactivity
17,QVQLVESGGGLVQAGGSLRLSCAASGFTCAWYTMGWYREAPGKERELVAAISLNGGSTYYADSVKGRFTISRDNAKNTVYLQMNRLKPEDTAVYYCAKGYRWPYYPYDYWGQGTQVTVSS,low polyreactivity
18,QVQLVESGGGLVQAGGSLRLSCAASGFTCKKYAMGWSRQAPGKERDLVASITWYGGSTSYADSVKGRFTISRDNANNTVYLQMNSLKPEDTAVYYCAAATFVYRLRYNRFDYWGQGTQVTVSS,high polyreactivity
19,QVQLVESGGGLVQAGGSLRLSCAASGFTCSQNAMGWYRQAPGKERELVAAITGHGGSTYYADSVKGRFTISRDNAKNTVYLQMNSLKPEDTAVYYCAADVYAVHAPQSDYWTKYDYWGQGTQVTVSS,low polyreactivity
20,QVQLVESGGGLVQAGGSLRLSCAASGFTFAAYAMGWYRQAPVKERELVAAITNGGSTKYADSVKGRFTISRDNAKNTVYVQMNSLKPEDTSVYYCNADGFDLNVTNVSALEYDSWGQGTQVTVSS,low polyreactivity
21,QVQLVESGGGLVQAGGSLRLSCAASGFTFAFYTMGWSRPAPGKESELVAGITRSGTNTYYADSLTGRFTISRDNAKNTVYLLLNSLTPEDTAVYYCAAAIRPGMDYWGQGTQVTVSS,high polyreactivity
22,QVQLVESGGGLVQAGGSLRLSCAASGFTFAGNAMGWYRPAPGKERELVAAISRRGGSTYYADSVKGRFTISRDNAKNTVYLQMNSLKPEDTAVYYCAAVYPYDYDYWGQGTQVTVSS,high polyreactivity

row,Sequence,polyreactivity (PSR sort gate)
1,QVQLVESGGGLVQAGGSLRLSCAASGFTFAGYAMGWSRQAPGKERELVAGIRSSGARTYYADSVKGRFTISRDNAKNTVYLQMNSLKPEDTAVDYCAKTDGFYRGYGYWGQGTQVTVSS,low polyreactivity
2,QVQLVESGGGLVQAGGSLRLSCAASGFTFAKYAMGWYRQAPGKERELVAAISSSGGRTYYADSVKGRFTISRDNAKNTVYLQMNSLKPEDTAVYYCAAAIRYRNYVYLYDYWGQGTQVTVSS,high polyreactivity
3,QVQLVESGGGLVQAGGSLRLSCAASGFTFALYAMGWYRQAPGKERELVASISWSGGSTYYADSVKGRFTISRDNAKNTVYLQMNSLKPEDTAVYYCAACGRYYGGAYTRYYYWGQGTQVTVSS,high polyreactivity
4,QVQLVESGGGLVQAGGSLRLSCAASGFTFANNAMGWYRQAPGKERELVAAISRSGGSTYYADSVKGRFTISRDNAKNTVYLQMNSLKPEDTAVYYCAKAVFYGPCERNYGLDYWGQGTQVTVSS,high polyreactivity
5,QVQLVESGGGLVQAGGSLRLSCAASGFTFANYAMGWYRQAPGKERELVAAITRTAGSTYYADSVKGRFTISRDNAKNTVYLQMNSLKPEDTAVYYCAVEGIYRWYDYSWYYTSTYDYWGQGTQVTVSS,low polyreactivity
6,QVQLVESGGGLVQAGGSLRLSCAASGFTFAPYVMGWYRQAPGKETELVAAIPTRGGSTYYADSVKGRFTISRDNAKNTVYLQMNSLKPEDTAVYYFAAQRRYDTADHGYWGQGTQVTVSS,high polyreactivity
7,QVQLVESGGGLVQAGGSLRLSCAASGFTFASNAMGWYRQAPGKERELVAGISRTGTTTYYADSVKGRFTISRDNAKNTVYLQMNSLKPEDTAVYYCNKAFSHQIYATGMGYWGQGTQVTVSS,high polyreactivity
8,QVQLVESGGGLVQAGGSLRLSCAASGFTFASNCMGWYRQAPGKERELVAVIDWSDDSTYYADSVKGRFTISRDNAKNTVYLQMNSLKPEDTAVYYCKADVWWGGYDYWGQGTQVNVSS,low polyreactivity
9,QVQLVESGGGLVQAGGSLRLSCAASGFTFAVYAMGWYRQAPGKERELVAAINRGGGSTYADSVKGRFTISRDTAKNTVYLQMNSLKPEDTAVYYCAARVYGTRKINYSWGQGTQVTVSS,high polyreactivity
10,QVQLVESGGGLVQAGGSLRLSCAASGFTFAVYTMGRYIQGPGKERELVAAITASGGSTHYADSVKGRFTISRDNAKNTVYIQMNSLKPEDTAVYYCAARPRLYQYYYWGQGTQVTVSS,high polyreactivity
11,QVQLVESGGGLVQAGGSLRLSCAASGFTFAVYTMGWYRQAPGKERELVAAITASGGSMHYADSVKGRFTISRDNVKNTVYLQMNSLKPEDTAVYYCAARPRLYQYYYWGQGTQVTVSS,high polyreactivity
12,QVQLVESGGGLVQAGGSLRLSCAASGFTFAYNAMGWYRQAPGKERELVAAISRSGARTYYADSVKGRFTISRDNAKNTVYLQMNSLKPEDTAVYYCNARDYTLYGYWGQGTQVTVSS,high polyreactivity
13,QVQLVESGGGLVQAGGSLRLSCAASGFTFAYNAMGWYRQAPGKERELVATISWSGGSTYYADSVKGRFTISRDNAKNTVYLQMNSLKPEDTAVYYCATTIFYTYYGLYDYWGQGTQVTVSS,high polyreactivity
14,QVQLVESGGGLVQAGGSLRLSCAASGFTFAYYAMGWYRQAPGKEREFVAVITWSGGDTYYADSVKGRFTISRDNAKNTVYLQMNSLKPEDTAVSYCAATYWGTRRIYAYGYWGQGTQVTVSS,high polyreactivity
15,QVQLVESGGGLVQAGGSLRLSCAASGFTFAYYAMGWYRQAPGKERELVAAISSRGGSTYYADSVKGRFTISRDNAKNTVYLQMNSLKPEDTAVYYCAAEFGLWPYEYGYWGQGTQVTVSS,high polyreactivity
16,QVQLVESGGGLVQAGGSLRLSCAASGFTFAYYDMGWYRQAPGKERELVAAISQSGGSTYYADSVKGRFTISRDNAKNTVYLQMKSLKPEDTAVYYCNAYAYTQSYEYDYWGQGTQVTVSS,high polyreactivity
17,QVQLVESGGGLVQAGGSLRLSCAASGFTFAYYTMGWYRQAPGKERELVAAINWSGGSTYYADSVKGRFTISRDNAKNTVYLQMNSLKPEDTAVYYCAAKSYWWATYEYWGQGTQVTVSS,high polyreactivity
18,QVQLVESGGGLVQAGGSLRLSCAASGFTFAYYTMGWYRQAPGKERELVVVINRSGSTNYADSVKGRFTISRDNAKNTVYLQMNSLKPEDTAVYYCATGVALRYGYWGQGTQVTVSS,low polyreactivity
19,QVQLVESGGGLVQAGGSLRLSCAASGFTFDAYTMGWYSQAPGKERELVAAITWSGGRTYYADSVKGRCTISRDNAKTTVYLQLNSLKPEDTALYNCAADSPTSLYEYWGQGTQVTVSS,high polyreactivity
20,QVQLVESGGGLVQAGGSLRLSCAASGFTFDENAMGWYRQAPGINYSGASTYYADSVKGRFTISRDNAKNTVYLQMNSLKPDDTAVYYCAAEVVAQMNYWGQGTQVTVSS,low polyreactivity
21,QVQLVESGGGLVQAGGSLRLSCAASGFTFDGYGMGWYRQAPGKERELVAVITSGGSTKYADSVKGRFTISRDNAKNTVYLQMNSLNPEDTAVYYCNVVGGRYLYSAYDYWGQGTQVTVSS,low polyreactivity
